Measurements: patent US20240101646A1 (published 2024)

B1: antibody 5317-4 (antibody, V domains shown)
VH: QVQLRLWGAGLLKPSETLSLTCAVSGGSFIDYYWTWIRQPPGKGLEWIGEINHFGGSGYNPSLKSRVSISVDTSKNQFSLRLNSVTAADTAIYYCARKPLLHSSVNPGAFDIWGQGTMLTVSS
VL: EIVLTQSPGTLSLSPGERAALSCRASQSVAGTYLAWYQQKPGQAPRLLIYGASSRATGIPDRFSGSGSGTDFTLTISRLEPEDFAVYYCQQYATSPRTFGQGTQLEIR
B2: 53182-8 (antibody, V domains shown)
VH: QLQLQESGPGLVKPSETLSLTCTVSGGSISSSSYYWGWIRQPPGKGLEWIGTIYYSGSTYYNPSLKSRVTISVDTSKTQFSLKLSSVTAADTAVYYCARDRRGGGWTASFDFWGQGTLVTVSS
VL: not shown
B3: 53182-9 (antibody, V domains shown)
VH: EVQLVESGGGLILPGGSLRLSCAASGVTVSSNYMNWVRQAPGKGLEWVSVIYSGGSTFYADSVKGRFTISRDNSKNTLYLQMNSLRAEDTAVYYCARGGWPSGDTFDIWGQGTMVTVSS
VL: DIQLTQSPSFLSASVGDRVTITCRASQGISSYLAWYQQKPGKAPKLLIYAASTLQSGVPSRFSGSGSGTEFTLTISSLQPEDFATYYCQQLNSYPEITFGPGTKVDIK
B4: 5317-2 (antibody, V domains shown)
VH: QVQLVQSGAEVKKPGSSVKVSCKVSGGTFSSYTIIWVRQAPGQGLEWMGRVIPVVHITHYAQRFRGRVTISADKSTSTAYMELSSLRSEDTAVYYCARGLWFGDSETVWFDPWGQGTLVTVSS
VL: DIQMTQSPSSLSASVGDRVTITCRASQNITYYLNWYQQKPGKAPNLLIYTASSLQSGVPSRFIGSGSGTDFTLTISSLQPEDFATYCCQQSYSTPPTFGQGTKVEIR
B5: 5317-1 (antibody, V domains shown)
VH: QMQLVQSGPEVKKPGTSVKVSCKASGFTFSTSVVQWVRQPRGQRLEWIGGIVVGRGNTKYAQNFQERVTITRDMSTSTAYMELSNLRSEDTAVYYCAADPFADYWGQGTLVTVSS
VL: not shown
B6: 5317-5 (antibody, V domains shown)
VH: QVQLVQSGAEVKKPGSSVKVSCKASGGTFSSYPITWVRQAPGQGFEWMGKIIPILGIADYAQSFQGRVTITADKSTTTAYMELSSLRSEDTAVYYCAREKGYSSSSSATYYLDFWGQGTLVTVSS
VL: QSVLTQPPSVSGAPGQRVTISCTGSNSNIGAGYDVHWYQQLPGTAPRLLIYRNSNRPSGVPDRFSGSKSGTAASLAISGLQAEDEADYYCQSYDSSLTALVFGGGTKLTVL
B7: 53182-3 (antibody, V domains shown)
VH: EVHLVESGGGLVQPGGSLRLSCAASGFTVSSNYMSWVRQAPGKGLEWVSVIYSGGNTYYADSVKGRFTISRDNSKNTLYLQMNSLRAEDTAVYYCARDRRIIGYYFGMDVWGRGTTVTVSS
VL: QSALTQPASVSGSPGQSITISCTGTSSYVGSFDLVSWYQQHPGKAPKLMIYEVSKRPSGVSNRFSGSKSGNTASLTISGLQAEDEADYYCCPYADTWVFGGGTKLTVL
B8: 5317-7 (antibody, V domains shown)
VH: EVQLVGSGGGLVQPGGSLRLSCAASGFTFSTYWMSWVRQAPGKGLEWVADIKQDGSEKYYVDSVKGRFTISRDNAKNSLYLQMNSLRVEDTALYYCARGGLWGTFDYWGQGTLVTVSS
VL: EIVLTQSPGTLSLSPGERASLSCRASQSVSSSYLAWYQQKPGQAPRLLIYGASSRATGIPDRFSGSGSGTDFTLTISRLEPEDFAVYWCQQFAYSLYTFGQGTKLEIK
B9: 53182-1 (antibody, V domains shown)
VH: EVQLVESGGGLIQPGGSLRLSCTASGITVSTNYMTWVRQAPGKGLEWVSIIYSGGSTYYADSVKGRFTISRDNSKNTLYLQMNSLRADDTAVYYCTRGGWPSGDTFDIWGLGTMVTVSS
VL: DIQLTQSPSFLSASVGDRVTITCRASQGISSYLAWYQQKPGKAPKLLIYGASTLQSGVPSRFSGSGSGTEFTLTISSLQPEDFATYYCQQLNSYPEITFGPGTKVDIK
B10: 5317-6 (antibody, V domains shown)
VH: QLQLQESGPGLVKPSETLSLTCTVSGASISSSSYYWGWIRQPPGKGLEWIGTMYYRGSTDYNPSLKSRVTISVDTSKNQFSLRLSSVTAADTAVYYCARRVPGDYYCLDVWGKGTTVTVSS
VL: DIQLTQSPSSLSASVGDRVTVTCRASQSISDYLNWYQQKPGKAPKLLIYAASSLQTGVPPRFSGSGSGTDFTLTISSLQPEDFATYYCQQSFSARVPTFGGGTKVESK
B11: 5317-3 (antibody, V domains shown)
VH: EVQLVESGGGLVQPGGSLRLSCSASGFTFSSYPMYWVRQAPGIGLEYVSGITDNGGSTYYGDSVKGRFTISRDNSKNTLNLQMNNLRTEDTAVYYCVKGKIQLWLGADYWGQGTLVTVSS
VL: DIQMTQSPSSLSASVGDRVTITCRANQTISSYLNWYQQKPGKAPKVLIFAASSLEGGVPSRFSGSGSGTDFTLTISSLQPEDFATYSCQQSYNTPWTFGQGTKVEIK
B12: 53182-6 (antibody, V domains shown)
VH: EVQLVESGGGLVQPGGSLRLSCAASGFTVSDNYMSWVRQAPGKGLQWVSVIYSGGNTYYADFVKGRFNITRDDSKNMLYLQMNSLRREDTAVYYCVRDRRIVGYYFGLDVWGQGTTVTVFS
VL: QSALTQPASVSGSPGQSITISCTGTSSDVRNYNLVSWYQQHPGKAPKLMIFEDSKRPSGVSNRFSGSKSGNTASLTIAGLQPEDEADYYCCSYATTWVFGGGTKVTVL
B13: 53182-11 (antibody, V domains shown)
VH: EVQLVEFGGGLVQPGRSLRLSCATSGFTFEDFDMHWVRQAPGKGLEWVSGSTWNSGIIGYADSVKGRFTTSRDNAKNSLYMQMNNLREEDTALYYCAKDIGRYDHYNIFGRVGGAFDIWGQGTMVTVSS
VL: DIQMTQSPSSLSASVGDRVTISCQTSQDISVSLNWYQQKPGKPPKVLIYDASNLEAGAPSRFSGSGSGTDFTFTISSLQPEDIATYYCQHYDNLPRFGPGTKVDIK
B14: 53182-4 (antibody, V domains shown)
VH: QITLEESGPTLVTPTQTLTLTCSFSGFSLDTIGVAVAWIRQPPGKALEWLGTVFWDYDKRYSPPLSSRLTVIKDTSQQYVVLRLTDVGPGDTATYYCARLLIEHDAFDIWGQGAVVIVSS
VL: DVVVTQSPVSLPATPGEPASISCRASQSLLHRNGKHYLHWYLQRPGQSPQLLIYLGSNRASGVPDRFSGSGSGTVFSLKISRVEAEDVGIYYCMQALHFPYTFGQGTKLDIK
B15: 53181-1 (antibody, V domains shown)
VH: QVQLVQSGAEVKKPGASVKVSCKASGYTFTNYVLTWVRQAPGQGLEWMGWISAYNGSTNYAQNLQGRVTMTTDTSTSTAYMELRSLRSDDTAVYYCARDPASYYDFWSGYVDYYYYGMDVWGQGTTVTVSS
VL: ELVLTQSPGTLSLSPGERATLSCRASQSVSSSYLAWYQQKPGQAPRLLIYSASSRATGIPDRFSGSGSGTDFTLTISRLEPEDFAVYYCQQYGNSRLTFGPGTKVDIK
B16: 53181-2 (antibody, V domains shown)
VH: QVQLVQSGAEVKKPGASVKVSCKASGYTFTSYSINWVRQAPGQGLEWMGWISAYNGSTNYAQKLQGRVTMTTDTSTSTAYMELRSLRSDDTAVYYCARDPASYYDLWSGYVDYYYYGMDVWGQGTTVTVSS
VL: EIVLTQSPGTLSLSPGERATLSCRASQSVSSSYLAWYQQKPGQAPRLLIYGASSRATGIPDRFSGSGSGTDFTLTISRLEPEDFAVYYCHHYGSSRLTFGPGTKVDIK

Target: SARS-CoV-2 RBD (SARS-CoV-2, UniProt P0DTC2 319-541)

| Binder | Kd |
| --- | --- |
| B1 | 1.78 nM |
| B2 | 16.5 nM |
| B3 | 0.0475 nM |
| B4 | 1.95 nM |
| B5 | 0.0434 nM |
| B6 | 0.0826 nM |
| B7 | 8.32 nM |
| B8 | 10.5 nM |
| B9 | 2.81 nM |
| B10 | 1.66 nM |
| B11 | 1.92 nM |
| B12 | 0.935 nM |
| B13 | 3.18 nM |

Target: SARS-CoV-2 NTD (SARS-CoV-2, UniProt P0DTC2 14-305)

| Binder | Kd |
| --- | --- |
| B14 | 2.28 nM |
| B15 | 1.17 nM |
| B16 | 31.3 nM |
